# Measured values from patent US20230140200A1, “COMPOSITIONS AND METHODS FOR DETECTING CELLS UNDERGOING FERROPTOSIS USING AN ANTIBODY” (THE TRUSTEES OF COLUMBIA UNIVERSITY IN THE CITY OF NEW YORK, priority 2020, published 2023).
# “Also recorded” adds a separate entry of the source.
# Columns and labels:
# [1] = system: Huh-7 cells; assay: Immunofluorescence in Huh-7 cells; assay type: cell-based; details: 1 μM RSL3, 4 h
# [2] = system: SK-BR-3 cells; assay: Immunofluorescence in SK-BR-3 cells; assay type: cell-based, human; details: 1 μM RSL3, 4 h
# [3] = system: TfR1; assay: Western blot of TfR1 during ferroptosis; assay type: cell-based, human; details: RSL3-induced and IKE-induced ferroptosis, HT-1080 cells
# Experimental: HT-1080 cells were seeded in DMEM (Corning 10-013-CM) and 10% Hi-FBS with 1% penicillin and streptomycin (PS) with 1% MEM Non-Essential Amino Acids Solution (100×) (Thermo Fisher Scientific 11140-076) 16 h prior to use. DMSO or 1 μM of RSL3 was added and incubated for 4 h. Following treatment, the medium was aspirated from each dish and cells were washed twice with PBS. Cells were lysed with 70 μl lysis buffer (RIPA buffer from ThermoFisher, cat. 89900, 1 mM EDTA, 1 mM PMSF, 1× Halt™ protease inhibitor cocktail from ThermoFisher, cat. 78430 and 1× Halt™ phosphatase inhibitor cocktail from ThermoFisher, cat. 78426). Unlysed cells and debris were pelleted for 15 min at 16,000×g at 4° C. Samples were separated using SDS-PAGE and transferred to a polyvinylidene difluoride membrane. Transfer was performed using the iBlot2 system (Invitrogen). […]
# [4] = system: HCC mouse xenograft tumor tissue (Huh-7 cells); assay: Staining of hepatocellular carcinoma (HCC) mouse xenograft tumor tissue sections; details: 50 mg/kg IKE once daily IP for 2 days
# Experimental: Tumor tissues were fixed in 4% paraformaldehyde (PFA) for 24 h at 4° C. followed by washing with PBS three times. The tissues were perfused in 30% sucrose for 24 h at 4° C. for cryo-protection. The samples were embedded in OCT cryostat sectioning medium, and then moved directly into a cryostat. After equilibration of temperature, frozen tumor tissues were cut into 5 μm thick sections. Tissue sections were mounted on to poly-L-lysine coated slides by placing the cold sections onto warm slides. Slides were stored at −80° C. until staining. For staining, slides were warmed to room temperature followed by washing with PBS twice. A hydrophobic barrier pen was used to draw a circle on each slide. The slides were permeabilized with PBS with 0.4% Triton X-100 (PBT) twice before non-specific-binding blocking by incubating the sections with 10% goat serum (ThermoFisher 50197Z) for 30 min at room temperature. […] All images were captured on a Zeiss LSM 800 confocal microscope at Plan-Apochromat 63×/1.40 Oil DIC objective with constant laser intensity for all analyzed samples. The intensity above threshold of the fluorescent signal of the bound antibodies was analyzed using NIH ImageJ software (ImageJ, RRID:SCR_003070). Data were expressed as fold change comparing with the vehicle. […]
# [5] = system: human brain tissues; assay: Staining of post-mortem Huntington's disease and control brain tissues; details: HD and control groups
# Experimental: FIGS. 12A-12B show 3F3 FMA staining in human Huntington's disease brains and mouse tissues. In FIG. 12A, human HD and control brain tissues were fixed in 4% PFA for 24 h, perfused in 30% sucrose for 24 h, and stained with DAPI (nuclei, blue) and 3F3 FMA (red). The expression level of TfR1 is low. There was no difference between HD and control groups. In FIG. 12B, mouse liver tissues and mouse GBM tissues were fixed and stained with DAPI (nuclei, blue) and 3F3 FMA (red). 3F3 FMA was able to recognize mouse TfR1.
molecule,measurement,setting,value
"3F3-FMA: Murine monoclonal IgG1 raised against ferroptotic membrane fractions; antigen is transferrin receptor protein 1 (TfR1) (antibody, V domains shown) VH: EVLLQQSGTELVRPGALVKLSCKASGFNIQDLYIHWVKQRPEQGLEWIGWIDPETDNTIYDPKFQGKASITADTSSNTAYLQLSSLTSEDTAMYYCSTGLLQWYFDVWGAGTAVTVSS VL: DIVMTQSPSSLAMSIGQKVTMRCKSSQSLLNSYNQKNCLAWYQQKPGQSPKLLLYFVSTRESGVPDRFIGSGSGTDFTLTISSVQAEDLADYFCQQHYSTPLTFGAGTKLELK",3F3-FMA staining upon ferroptosis induction,[1],concentrated at the cell boundaries and became brighter
same,3F3-FMA staining upon ferroptosis induction,[2],concentrated at the cell boundaries and became brighter
same,intensity of western blot bands during ferroptosis,[3],increased intensity of the bands
same,antibody staining intensity in IKE-treated vs vehicle tumor tissue,[4],increased intensities; also recorded: difference in intensities
same,staining signal in brain tissue,[5],lack of signal
